The test concerns the target human TIGIT on cells (primary T cells, transfected HEK293 cells, Jurkat reporter cells, NK cells) (human) (UniProt Q495A1). As to the kind of experiment: cell-based or functional assay.

These results are taken from patent US20220403022A1.

Chain of human TIGIT on cells (primary T cells, transfected HEK293 cells, Jurkat reporter cells, NK cells) (human) (Q495A1 22-244 limits assumed): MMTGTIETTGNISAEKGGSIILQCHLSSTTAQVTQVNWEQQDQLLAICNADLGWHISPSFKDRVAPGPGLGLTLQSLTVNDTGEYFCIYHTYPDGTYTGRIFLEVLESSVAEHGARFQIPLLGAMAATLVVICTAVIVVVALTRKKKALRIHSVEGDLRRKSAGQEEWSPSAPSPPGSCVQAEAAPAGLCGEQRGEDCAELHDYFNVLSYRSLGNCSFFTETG

In turn, Isotype control (antibody) registered a Max RLU (potency) of 575 RLU.
